Measurements: US20170190753A1 (LABORATOIRE FRANCAIS DU FRACTIONNEMENT ET DES …, published 2017)

B1: pCEP4-1NT10-14CT20 (other)
chain: EDCNELPPRRNTEILTGSWSDQTYPEGTQAIYKCRPGYRSLGNVIMVCRKGEWVALNPLRKCQKRPCGHPGDTPFGTFTLTGGNVFEYGVKAVYTCNEGYQLLGEINYRECDTDGWTNDIPICEVVKCLPVTAPENGKIVSSAMEPDREYHFGQAVRFVCNSGYKIEGDEEMHCSDDGFWSKEKPKCVEISCKSPDVINGSPISQKIIYKENERFQYKCNMGYEYSERGDAVCTESGWRPLPSCEEKSCDNPYIPNGDYSPLRIKHRTGDEITYQCRNGFYPATRGNTAKCTSTGWIPAPRCTLKPCDYPDIKHGGLYHENMRRPYFPVAVGKYYSYYCDEHFETPSGSYWDHIHCTQDGWSPAVPCLRKCYFPYLENGYNQNHGRKFVQGKSIDVACHPGYALPKAQTTVTCMENGWSPTPRCIRVKTCSKSSIDIENGFISESQYTYALKEKAKYQCKLGYVTADGETSGSITCGKDGWSAQPTCIKSCDIPVFMNARTKNDFTWFKLNDTLDYECHDGYESNTGSTTGSIVCGYNGWSDLPICYERECELPKIDVHLVPDRKKDQYKVGEVLKFSCKPGFTIVGPNSVQCYHFGLSPDLPICKEQVQSGASGCPPPPQIPNSHNMTTTLNYRDGEKVSVLCQENYLIQEGEEITCKDGRWQSIPLCVEKIPCSQPPQIEHGTINSSRSSQESYAHGTKLSYTCEGGFRISEENETTCYMGKWSSPPQCEGLPCKSPPEISHGVVAHMSDSYQYGEEVTYKCFEGFGIDGPAIAKCLGEKWSHPPSCIKTDCLSLPSFENAIPMGEKKDVYKAGEQVTYTCATYYKMDGASNVTCINSRWTGRPTCRDTSCVNPPTVQNAYIVSRQMSKYPSGERVRYQCRSPYEMFGDEEVMCLNGNWTEPPQCKDSTGKCGPPPPIDNGDITSFPLSVYAPASSVEYQCQNLYQLEGNKRITCRNGQWSEPPKCLHPCVISREIMENYNIALRWTAKQKLYSRTGESVEFVCKRGYRLSSRSHTLRTTCWDGKLEYPTCAKRGGSGHHHHHH
B2: pCEP4-1NT7-19CT20 (other)
chain: EDCNELPPRRNTEILTGSWSDQTYPEGTQAIYKCRPGYRSLGNVIMVCRKGEWVALNPLRKCQKRPCGHPGDTPFGTFTLTGGNVFEYGVKAVYTCNEGYQLLGEINYRECDTDGWTNDIPICEVVKCLPVTAPENGKIVSSAMEPDREYHFGQAVRFVCNSGYKIEGDEEMHCSDDGFWSKEKPKCVEISCKSPDVINGSPISQKIIYKENERFQYKCNMGYEYSERGDAVCTESGWRPLPSCEEKSCDNPYIPNGDYSPLRIKHRTGDEITYQCRNGFYPATRGNTAKCTSTGWIPAPRCTLKPCDYPDIKHGGLYHENMRRPYFPVAVGKYYSYYCDEHFETPSGSYWDHIHCTQDGWSPAVPCLRKCYFPYLENGYNQNYGRKFVQGKSIDVACHPGYALPKAQTTVTCMENGWSPTPRCIRVKTGASGCGPPPPIDNGDITSFPLSVYAPASSVEYQCQNLYQLEGNKRITCRNGQWSEPPKCLHPCVISREIMENYNIALRWTAKQKLYSRTGESVEFVCKRGYRLSSRSHTLRTTCWDGKLEYPTCAKRGGSGHHHHHH
B3: pCEP4-1NT11-15CT20 (other)
chain: EDCNELPPRRNTEILTGSWSDQTYPEGTQAIYKCRPGYRSLGNVIMVCRKGEWVALNPLRKCQKRPCGHPGDTPFGTFTLTGGNVFEYGVKAVYTCNEGYQLLGEINYRECDTDGWTNDIPICEVVKCLPVTAPENGKIVSSAMEPDREYHFGQAVRFVCNSGYKIEGDEEMHCSDDGFWSKEKPKCVEISCKSPDVINGSPISQKIIYKENERFQYKCNMGYEYSERGDAVCTESGWRPLPSCEEKSCDNPYIPNGDYSPLRIKHRTGDEITYQCRNGFYPATRGNTAKCTSTGWIPAPRCTLKPCDYPDIKHGGLYHENMRRPYFPVAVGKYYSYYCDEHFETPSGSYWDHIHCTQDGWSPAVPCLRKCYFPYLENGYNQNHGRKFVQGKSIDVACHPGYALPKAQTTVTCMENGWSPTPRCIRVKTCSKSSIDIENGFISESQYTYALKEKAKYQCKLGYVTADGETSGSITCGKDGWSAQPTCIKSCDIPVFMNARTKNDFTWFKLNDTLDYECHDGYESNTGSTTGSIVCGYNGWSDLPICYERECELPKIDVHLVPDRKKDQYKVGEVLKFSCKPGFTIVGPNSVQCYHFGLSPDLPICKEQVQSCGPPPELLNGNVKEKTKEEYGHSEVVEYYCNPRFLMKGPNKIQCVDGEWTTLPVCIVEESTGASGCSQPPQIEHGTINSSRSSQESYAHGTKLSYTCEGGFRISEENETTCYMGKWSSPPQCEGLPCKSPPEISHGVVAHMSDSYQYGEEVTYKCFEGFGIDGPAIAKCLGEKWSHPPSCIKTDCLSLPSFENAIPMGEKKDVYKAGEQVTYTCATYYKMDGASNVTCINSRWTGRPTCRDTSCVNPPTVQNAYIVSRQMSKYPSGERVRYQCRSPYEMFGDEEVMCLNGNWTEPPQCKDSTGKCGPPPPIDNGDITSFPLSVYAPASSVEYQCQNLYQLEGNKRITCRNGQWSEPPKCLHPCVISREIMENYNIALRWTAKQKLYSRTGESVEFVCKRGYRLSSRSHTLRTTCWDGKLEYPTCAKRGGSGHHHHHH
B4: pCEP4-1NT11-16CT20 (other)
chain: EDCNELPPRRNTEILTGSWSDQTYPEGTQAIYKCRPGYRSLGNVIMVCRKGEWVALNPLRKCQKRPCGHPGDTPFGTFTLTGGNVFEYGVKAVYTCNEGYQLLGEINYRECDTDGWTNDIPICEVVKCLPVTAPENGKIVSSAMEPDREYHFGQAVRFVCNSGYKIEGDEEMHCSDDGFWSKEKPKCVEISCKSPDVINGSPISQKIIYKENERFQYKCNMGYEYSERGDAVCTESGWRPLPSCEEKSCDNPYIPNGDYSPLRIKHRTGDEITYQCRNGFYPATRGNTAKCTSTGWIPAPRCTLKPCDYPDIKHGGLYHENMRRPYFPVAVGKYYSYYCDEHFETPSGSYWDHIHCTQDGWSPAVPCLRKCYFPYLENGYNQNHGRKFVQGKSIDVACHPGYALPKAQTTVTCMENGWSPTPRCIRVKTCSKSSIDIENGFISESQYTYALKEKAKYQCKLGYVTADGETSGSITCGKDGWSAQPTCIKSCDIPVFMNARTKNDFTWFKLNDTLDYECHDGYESNTGSTTGSIVCGYNGWSDLPICYERECELPKIDVHLVPDRKKDQYKVGEVLKFSCKPGFTIVGPNSVQCYHFGLSPDLPICKEQVQSCGPPPELLNGNVKEKTKEEYGHSEVVEYYCNPRFLMKGPNKIQCVDGEWTTLPVCIVEESTGASGCKSPPEISHGVVAHMSDSYQYGEEVTYKCFEGFGIDGPAIAKCLGEKWSHPPSCIKTDCLSLPSFENAIPMGEKKDVYKAGEQVTYTCATYYKMDGASNVTCINSRWTGRPTCRDTSCVNPPTVQNAYIVSRQMSKYPSGERVRYQCRSPYEMFGDEEVMCLNGNWTEPPQCKDSTGKCGPPPPIDNGDITSFPLSVYAPASSVEYQCQNLYQLEGNKRITCRNGQWSEPPKCLHPCVISREIMENYNIALRWTAKQKLYSRTGESVEFVCKRGYRLSSRSHTLRTTCWDGKLEYPTCAKRGGSGHHHHHH
B5: pCEP4-1NT8-10CT20 (other)
chain: EDCNELPPRRNTEILTGSWSDQTYPEGTQAIYKCRPGYRSLGNVIMVCRKGEWVALNPLRKCQKRPCGHPGDTPFGTFTLTGGNVFEYGVKAVYTCNEGYQLLGEINYRECDTDGWTNDIPICEVVKCLPVTAPENGKIVSSAMEPDREYHFGQAVRFVCNSGYKIEGDEEMHCSDDGFWSKEKPKCVEISCKSPDVINGSPISQKIIYKENERFQYKCNMGYEYSERGDAVCTESGWRPLPSCEEKSCDNPYIPNGDYSPLRIKHRTGDEITYQCRNGFYPATRGNTAKCTSTGWIPAPRCTLKPCDYPDIKHGGLYHENMRRPYFPVAVGKYYSYYCDEHFETPSGSYWDHIHCTQDGWSPAVPCLRKCYFPYLENGYNQNYGRKFVQGKSIDVACHPGYALPKAQTTVTCMENGWSPTPRCIRVKTCSKSSIDIENGFISESQYTYALKEKAKYQCKLGYVTADGETSGSITCGKDGWSAQPTCIKSGASGCELPKIDVHLVPDRKKDQYKVGEVLKFSCKPGFTIVGPNSVQCYHFGLSPDLPICKEQVQSCGPPPELLNGNVKEKTKEEYGHSEVVEYYCNPRFLMKGPNKIQCVDGEWTTLPVCIVEESTCGDIPELEHGWAQLSSPPYYYGDSVEFNCSESFTMIGHRSITCIHGVWTQLPQCVAIDKLKKCKSSNLIILEEHLKNKKEFDHNSNIRYRCRGKEGWIHTVCINGRWDPEVNCSMAQIQLCPPPPQIPNSHNMTTTLNYRDGEKVSVLCQENYLIQEGEEITCKDGRWQSIPLCVEKIPCSQPPQIEHGTINSSRSSQESYAHGTKLSYTCEGGFRISEENETTCYMGKWSSPPQCEGLPCKSPPEISHGVVAHMSDSYQYGEEVTYKCFEGFGIDGPAIAKCLGEKWSHPPSCIKTDCLSLPSFENAIPMGEKKDVYKAGEQVTYTCATYYKMDGASNVTCINSRWTGRPTCRDTSCVNPPTVQNAYIVSRQMSKYPSGERVRYQCRSPYEMFGDEEVMCLNGNWTEPPQCKDSTGKCGPPPPIDNGDITSFPLSVYAPASSVEYQCQNLYQLEGNKRITCRNGQWSEPPKCLHPCVISREIMENYNIALRWTAKQKLYSRTGESVEFVCKRGYRLSSRSHTLRTTCWDGKLEYPTCAKRGGSGHHHHHH
B6: pCEP4-1NT7-13CT20 (other)
chain: EDCNELPPRRNTEILTGSWSDQTYPEGTQAIYKCRPGYRSLGNVIMVCRKGEWVALNPLRKCQKRPCGHPGDTPFGTFTLTGGNVFEYGVKAVYTCNEGYQLLGEINYRECDTDGWTNDIPICEVVKCLPVTAPENGKIVSSAMEPDREYHFGQAVRFVCNSGYKIEGDEEMHCSDDGFWSKEKPKCVEISCKSPDVINGSPISQKIIYKENERFQYKCNMGYEYSERGDAVCTESGWRPLPSCEEKSCDNPYIPNGDYSPLRIKHRTGDEITYQCRNGFYPATRGNTAKCTSTGWIPAPRCTLKPCDYPDIKHGGLYHENMRRPYFPVAVGKYYSYYCDEHFETPSGSYWDHIHCTQDGWSPAVPCLRKCYFPYLENGYNQNYGRKFVQGKSIDVACHPGYALPKAQTTVTCMENGWSPTPRCIRVKTGASGCKSSNLIILEEHLKNKKEFDHNSNIRYRCRGKEGWIHTVCINGRWDPEVNCSMAQIQLCPPPPQIPNSHNMTTTLNYRDGEKVSVLCQENYLIQEGEEITCKDGRWQSIPLCVEKIPCSQPPQIEHGTINSSRSSQESYAHGTKLSYTCEGGFRISEENETTCYMGKWSSPPQCEGLPCKSPPEISHGVVAHMSDSYQYGEEVTYKCFEGFGIDGPAIAKCLGEKWSHPPSCIKTDCLSLPSFENAIPMGEKKDVYKAGEQVTYTCATYYKMDGASNVTCINSRWTGRPTCRDTSCVNPPTVQNAYIVSRQMSKYPSGERVRYQCRSPYEMFGDEEVMCLNGNWTEPPQCKDSTGKCGPPPPIDNGDITSFPLSVYAPASSVEYQCQNLYQLEGNKRITCRNGQWSEPPKCLHPCVISREIMENYNIALRWTAKQKLYSRTGESVEFVCKRGYRLSSRSHTLRTTCWDGKLEYPTCAKRGGSGHHHHHH

biological target: C3 convertase complex (UniProt P01024 23-1663; P00751 260-764); experiment: cell-based or functional assay
Wherever C3 convertase activity % of the control is given: test concentration or dose not given here.

Sequence of C3 convertase complex (P01024 23-1663, chain 1 of 2): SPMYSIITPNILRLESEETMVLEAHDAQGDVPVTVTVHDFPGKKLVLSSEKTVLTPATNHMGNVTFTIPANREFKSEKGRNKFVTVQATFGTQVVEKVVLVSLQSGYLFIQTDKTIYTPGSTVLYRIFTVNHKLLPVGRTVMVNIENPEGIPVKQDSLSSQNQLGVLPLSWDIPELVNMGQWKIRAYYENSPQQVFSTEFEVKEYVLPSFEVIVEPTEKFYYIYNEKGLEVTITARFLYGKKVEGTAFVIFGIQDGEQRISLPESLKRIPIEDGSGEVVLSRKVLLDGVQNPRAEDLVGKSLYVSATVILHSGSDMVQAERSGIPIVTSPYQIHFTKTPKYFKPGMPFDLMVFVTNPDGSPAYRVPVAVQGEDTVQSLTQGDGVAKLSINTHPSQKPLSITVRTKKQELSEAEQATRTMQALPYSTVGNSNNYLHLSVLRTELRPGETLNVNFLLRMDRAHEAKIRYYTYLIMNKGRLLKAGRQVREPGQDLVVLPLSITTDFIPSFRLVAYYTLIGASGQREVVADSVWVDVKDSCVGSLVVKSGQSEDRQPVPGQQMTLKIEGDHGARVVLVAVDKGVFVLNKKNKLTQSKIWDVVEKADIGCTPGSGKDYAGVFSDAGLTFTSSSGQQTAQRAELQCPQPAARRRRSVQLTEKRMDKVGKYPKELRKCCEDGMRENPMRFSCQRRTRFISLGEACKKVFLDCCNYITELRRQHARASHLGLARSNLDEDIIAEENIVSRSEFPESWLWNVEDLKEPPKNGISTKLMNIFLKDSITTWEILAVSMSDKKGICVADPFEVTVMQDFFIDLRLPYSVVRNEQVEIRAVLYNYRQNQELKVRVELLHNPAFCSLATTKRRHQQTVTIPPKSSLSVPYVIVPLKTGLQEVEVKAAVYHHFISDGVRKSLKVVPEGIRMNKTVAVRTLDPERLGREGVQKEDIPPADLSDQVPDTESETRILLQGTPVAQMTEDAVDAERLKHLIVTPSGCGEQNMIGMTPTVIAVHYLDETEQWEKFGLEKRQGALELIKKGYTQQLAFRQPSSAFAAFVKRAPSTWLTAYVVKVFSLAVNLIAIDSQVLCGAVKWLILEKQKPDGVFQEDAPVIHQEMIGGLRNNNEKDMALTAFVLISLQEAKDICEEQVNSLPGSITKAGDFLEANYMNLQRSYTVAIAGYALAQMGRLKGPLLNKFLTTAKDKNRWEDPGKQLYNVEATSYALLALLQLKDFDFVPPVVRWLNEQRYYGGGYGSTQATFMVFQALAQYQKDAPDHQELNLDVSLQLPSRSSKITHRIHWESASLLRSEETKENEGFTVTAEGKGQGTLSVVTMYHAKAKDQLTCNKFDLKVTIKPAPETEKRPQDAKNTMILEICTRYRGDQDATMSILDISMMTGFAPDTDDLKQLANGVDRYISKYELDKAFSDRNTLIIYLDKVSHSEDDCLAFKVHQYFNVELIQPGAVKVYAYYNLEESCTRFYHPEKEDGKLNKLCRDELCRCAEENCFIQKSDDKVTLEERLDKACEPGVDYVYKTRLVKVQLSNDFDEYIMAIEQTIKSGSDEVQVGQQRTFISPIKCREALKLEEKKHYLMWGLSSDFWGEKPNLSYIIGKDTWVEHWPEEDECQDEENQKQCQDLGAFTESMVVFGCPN
Sequence of C3 convertase complex (P00751 260-764, chain 2 of 2): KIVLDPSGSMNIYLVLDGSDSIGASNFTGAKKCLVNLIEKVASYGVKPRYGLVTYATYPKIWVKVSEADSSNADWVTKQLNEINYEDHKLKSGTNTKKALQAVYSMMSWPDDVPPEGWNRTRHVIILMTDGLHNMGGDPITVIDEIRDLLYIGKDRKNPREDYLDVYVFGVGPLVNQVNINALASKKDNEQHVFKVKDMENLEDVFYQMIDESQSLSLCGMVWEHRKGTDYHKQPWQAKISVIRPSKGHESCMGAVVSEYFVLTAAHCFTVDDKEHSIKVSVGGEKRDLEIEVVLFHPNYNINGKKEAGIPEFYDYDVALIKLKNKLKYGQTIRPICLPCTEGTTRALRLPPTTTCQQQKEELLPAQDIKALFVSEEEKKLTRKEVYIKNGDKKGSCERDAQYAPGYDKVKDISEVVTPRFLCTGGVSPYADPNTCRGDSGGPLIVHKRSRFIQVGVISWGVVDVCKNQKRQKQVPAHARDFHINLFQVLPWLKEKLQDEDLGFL

Row | C3 convertase activity % of the control | C3 convertase activity IC50 | Binder
1 | 14 % of the control | 0.671 µg/mL | B1
2 | 12 % of the control | 1.09 µg/mL | B2
3 | 10 % of the control | 0.74 µg/mL | B3
4 | 8 % of the control | 1.21 µg/mL | B4
5 | 107 % of the control | 0.338 µg/mL | B5
6 | 7 % of the control | 1.93 µg/mL | B6
